The text below walks through data of PMC8998336, “Structural and Biophysical Insights into SPINK1 Bound to Human Cationic Trypsin” (International Journal of Molecular Sciences, 2022).

Residue numbers refer to the chain shown, from its start. In names and notes the source's numbering stands. Some results are limits rather than exact numbers.

What all share (conditions): both partners purified
Assay [1] has as its target T1, human cationic trypsin (TRY1) p.S200A (human, UniProt P07477 24-247, p.S200A).
T1 construct: human cationic trypsin (TRY1); cloned as amino acids 16-247 (signal peptide removed); His6-tag and propeptide removed after enterokinase digestion; the final structure contains amino acids 24-247; catalytic serine replaced by alanine; also called TRY1 S200A; not shown: His6, N-terminal, cleaved
The assay can be described thus: ITC; MicroCal PEAQ-ITC, 37 °C; TRY1 p.S200A in the cell at 5-10 µM, SPINK1 in the syringe at 50-100 µM; 20 mM Hepes pH 7.4, 150 mM NaCl, 2 mM CaCl2; one-site binding model. A general note: Isothermal titration calorimetry measures the heat released or taken up as one component is titrated into another.

The target in assay [2] is T1, human cationic trypsin (TRY1) p.S200A. Nature of the assay: SPR; BIAcore T200, TRY1 p.S200A amine-coupled to a CM5 chip; SPINK1 3.125-50 nM, single-cycle kinetics, 37 °C, 50 µL/min; 20 mM Hepes pH 7.4, 150 mM NaCl, 2 mM CaCl2, 0.05% Tween20; 1:1 Langmuir model.
Assay [3] addresses T2, human cationic trypsin (TRY1) WT (human, UniProt P07477 24-247).
T2 construct: human cationic trypsin (TRY1); cloned as amino acids 16-247 (signal peptide removed); His6-tag and propeptide removed after enterokinase digestion; not shown: His6, N-terminal, cleaved
The assay can be described thus: enzyme inhibition assay (Morrison tight-binding fit); 100 pM TRY1, 1 mM L-BAPA, SPINK1 15.625-2000 pM; 20 mM Hepes pH 7.4, 150 mM NaCl, 2 mM CaCl2, 0.05% Tween20; 37 °C; initial rates after a 5 h lag phase; Morrison's quadratic equation.

The term kon denotes a measure of how fast the partners come together. A low value points to slower complex formation. The term Ki denotes a dissociation constant, usually derived from enzyme kinetics or from competition with a known ligand. A higher Ki goes with lower affinity.

B1: serine protease inhibitor Kazal-type 1 (SPINK1) WT (natural protein, human, UniProt P00995 24-79, looked up)
chain: DSLGREAKCYNELNGCTKIYDPVCGTDGNTYPNECVLCFENRKRQTSILIQKSGPC
notes: N-terminal truncation removes the signal peptide; pET47b construct with His6-tag and HRV3C cleavage site; source: SHuffle T7 Express E. coli, purified (HisTrap HP, HRV3C digestion, His6-tag removed on the same HisTrap column); not shown: His6, N-terminal, cleaved
In assay [1], B1 came in with a dH of about -10 kcal/mol. In assay [2], the “half-life t1/2 of the complex” value was about 1 h and the kon was determined as 250000 M⁻¹ s⁻¹. Besides, the Ki in assay [3] is under 0.05 nM.

B2: serine protease inhibitor Kazal-type 1 (SPINK1) p.N34S (natural protein, human, UniProt P00995 24-79, looked up)
chain: B1 chain with N11S
notes: made by site directed mutagenesis; pET47b construct with His6-tag and HRV3C cleavage site; also called SPINK1 N34S; p.N34S mutant; source: SHuffle T7 Express E. coli, purified (HisTrap HP, HRV3C digestion, His6-tag removed on the same HisTrap column); not shown: His6, N-terminal, cleaved
B2 displayed a dH in assay [1] of about -10 kcal/mol. Besides, in assay [2], the “half-life t1/2 of the complex” value was about 1 h and the kon came out at 250000 M⁻¹ s⁻¹. Further, the Ki in assay [3] is under 0.05 nM.
